Experimental data from publication PMC10397247.

Experiments:
[1] = molecular target: T1, 4H687-bA; assay: two-hybrid library CCNG1;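 also: natural log of median RNA to DNA barcode read ratio; higher means stronger binding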
T1 chain: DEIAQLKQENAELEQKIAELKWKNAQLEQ

[2] = molecular target: T2, 4H568-bA; assay: two-hybrid library CCNG1;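 also: natural log of median RNA to DNA barcode read ratio; higher means stronger binding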
T2 chain: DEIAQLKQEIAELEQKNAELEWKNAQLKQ

[3] = molecular target: T3, 4H4001-bA; assay: two-hybrid library CCNG1;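 also: natural log of median RNA to DNA barcode read ratio; higher means stronger binding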
T3 chain: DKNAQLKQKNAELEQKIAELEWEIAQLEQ

[4] = molecular target: T4, 4H953-bA; assay: two-hybrid library CCNG1;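 also: natural log of median RNA to DNA barcode read ratio; higher means stronger binding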
T4 chain: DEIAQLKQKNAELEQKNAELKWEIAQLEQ

[5] = molecular target: T5, 4H462-bA; assay: two-hybrid library CCNG1;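 also: natural log of median RNA to DNA barcode read ratio; higher means stronger binding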
T5 chain: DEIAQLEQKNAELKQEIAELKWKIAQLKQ

[6] = molecular target: T6, 4H3843-bA; assay: two-hybrid library CCNG1;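 also: natural log of median RNA to DNA barcode read ratio; higher means stronger binding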
T6 chain: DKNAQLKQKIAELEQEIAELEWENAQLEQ

[7] = molecular target: T7, 4H607-bA; assay: two-hybrid library CCNG1
T7 chain: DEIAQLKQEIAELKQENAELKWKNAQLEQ

[8] = molecular target: T8, 4H370-bA; assay: two-hybrid library CCNG1
T8 chain: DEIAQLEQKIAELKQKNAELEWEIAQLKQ

[9] = molecular target: T9, 4H967-bA; assay: two-hybrid library CCNG1
T9 chain: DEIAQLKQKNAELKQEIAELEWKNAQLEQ

[10] = molecular target: T10, 4H883-bA; assay: two-hybrid library CCNG1
T10 chain: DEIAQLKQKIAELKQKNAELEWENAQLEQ

[11] = molecular target: T11, 4H3782-bA; assay: two-hybrid library CCNG1
T11 chain: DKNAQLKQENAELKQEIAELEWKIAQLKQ

[12] = molecular target: T12, 4H72-bA; assay: two-hybrid library CCNG1
T12 chain: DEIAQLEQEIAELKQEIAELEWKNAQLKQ

[13] = molecular target: T13, 4H918-bA; assay: two-hybrid library CCNG1
T13 chain: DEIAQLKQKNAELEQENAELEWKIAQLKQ

[14] = molecular target: T14, 4H797-bA; assay: two-hybrid library CCNG1
T14 chain: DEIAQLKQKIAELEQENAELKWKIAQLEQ

[15] = molecular target: T15, 4H3606-bA; assay: two-hybrid library CCNG1; conditions: mean of both orientations
T15 chain: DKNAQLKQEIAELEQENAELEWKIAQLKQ

[16] = molecular target: T16, 4H710-AA; assay: two-hybrid library CCmax; conditions: mean of both orientations
T16 chain: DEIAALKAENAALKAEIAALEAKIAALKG

[17] = molecular target: T17, 4H2274-AA; assay: two-hybrid library CCmax; conditions: mean of both orientations
T17 chain: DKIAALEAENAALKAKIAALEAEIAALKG

[18] = molecular target: T18, 4H3410-AA; assay: two-hybrid library CCmax; conditions: mean of both orientations
T18 chain: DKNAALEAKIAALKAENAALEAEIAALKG

[19] = molecular target: T19, 4H458-AA; assay: two-hybrid library CCmax; conditions: mean of both orientations
T19 chain: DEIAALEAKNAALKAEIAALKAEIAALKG

[20] = molecular target: T20, 4H2330-AA; assay: two-hybrid library CCmax; conditions: mean of both orientations
T20 chain: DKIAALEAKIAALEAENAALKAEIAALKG

[21] = molecular target: T21, 4H310-AA; assay: two-hybrid library CCmax; conditions: mean of both orientations
T21 chain: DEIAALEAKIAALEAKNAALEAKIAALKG

[22] = molecular target: T22, 4H909-AA; assay: two-hybrid library CCmax; conditions: mean of both orientations
T22 chain: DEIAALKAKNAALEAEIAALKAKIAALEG

[23] = molecular target: T23, 4H2649-AA; assay: two-hybrid library CCmax; conditions: mean of both orientations
T23 chain: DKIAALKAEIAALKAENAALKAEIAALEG

[24] = molecular target: T24, 4H3395-AA; assay: two-hybrid library CCmax; conditions: mean of both orientations
T24 chain: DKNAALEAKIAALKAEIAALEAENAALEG

[25] = molecular target: T25, 4H536-AA; assay: two-hybrid library CCmax; conditions: mean of both orientations
T25 chain: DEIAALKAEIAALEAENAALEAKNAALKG

[26] = molecular target: T26, 4H2438-AA; assay: two-hybrid library CCmax; conditions: mean of both orientations
T26 chain: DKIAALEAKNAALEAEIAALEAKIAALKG

[27] = molecular target: T27, 4H850-AA; assay: two-hybrid library CCmax; conditions: mean of both orientations
T27 chain: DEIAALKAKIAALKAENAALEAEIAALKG

[28] = molecular target: T28, 4H2109-AA; assay: two-hybrid library CCmax; conditions: mean of both orientations
T28 chain: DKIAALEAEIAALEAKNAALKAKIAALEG

[29] = molecular target: T29, 4H3381-AA; assay: two-hybrid library CCmax
T29 chain: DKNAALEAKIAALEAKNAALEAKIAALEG

[30] = molecular target: T30, 4H570-AA; assay: two-hybrid library CCmax; conditions: mean of both orientations
T30 chain: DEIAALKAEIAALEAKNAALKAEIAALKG

[31] = molecular target: T31, 4H1877-AA; assay: two-hybrid library CCmax
T31 chain: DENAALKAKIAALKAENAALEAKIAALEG

[32] = molecular target: T32, 4H3130-AA; assay: two-hybrid library CCmax; conditions: mean of both orientations
T32 chain: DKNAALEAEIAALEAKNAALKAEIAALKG

[33] = molecular target: T33, 4H2473-AA; assay: two-hybrid library CCmax; conditions: mean of both orientations
T33 chain: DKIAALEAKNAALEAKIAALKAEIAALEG

[34] = molecular target: T34, 4H94-AA; assay: two-hybrid library CCmax; conditions: mean of both orientations
T34 chain: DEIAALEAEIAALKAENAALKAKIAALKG

[35] = molecular target: T35, 4H3009-AA; assay: two-hybrid library CCmax; conditions: mean of both orientations
T35 chain: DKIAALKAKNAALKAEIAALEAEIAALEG

[36] = molecular target: T36, 4H2389-AA; assay: two-hybrid library CCmax; conditions: mean of both orientations
T36 chain: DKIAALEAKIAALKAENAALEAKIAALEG

[37] = molecular target: T37, 4H930-AA; assay: two-hybrid library CCmax; conditions: mean of both orientations
T37 chain: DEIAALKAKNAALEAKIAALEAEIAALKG

[38] = molecular target: T38, 4H891-AA; assay: two-hybrid library CCmax; conditions: mean of both orientations
T38 chain: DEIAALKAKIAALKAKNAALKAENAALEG

[39] = molecular target: T39, 4H745-AA; assay: two-hybrid library CCmax; conditions: mean of both orientations
T39 chain: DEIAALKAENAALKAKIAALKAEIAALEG

[40] = molecular target: T40, 4H485-AA; assay: two-hybrid library CCmax; conditions: mean of both orientations
T40 chain: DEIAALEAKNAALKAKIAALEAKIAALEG

[41] = molecular target: T41, 4H797-AA; assay: two-hybrid library CCmax; conditions: mean of both orientations
T41 chain: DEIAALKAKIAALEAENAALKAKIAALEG

[42] = molecular target: T42, 4H3590-AA; assay: two-hybrid library CCmax; conditions: mean of both orientations
T42 chain: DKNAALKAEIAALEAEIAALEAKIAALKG

[43] = molecular target: T43, 4H3120-AA; assay: two-hybrid library CCmax; conditions: mean of both orientations
T43 chain: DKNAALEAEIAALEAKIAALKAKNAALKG

[44] = molecular target: T44, 4H3753-AA; assay: two-hybrid library CCmax; conditions: mean of both orientations
T44 chain: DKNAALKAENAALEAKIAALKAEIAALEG

[45] = molecular target: T45, 4H2162-AA; assay: two-hybrid library CCmax; conditions: mean of both orientations
T45 chain: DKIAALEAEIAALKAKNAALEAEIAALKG

[46] = molecular target: T46, 4H2725-AA; assay: two-hybrid library CCmax; conditions: mean of both orientations
T46 chain: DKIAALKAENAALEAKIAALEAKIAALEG

[47] = molecular target: T47, 4H629-AA; assay: two-hybrid library CCmax; conditions: mean of both orientations
T47 chain: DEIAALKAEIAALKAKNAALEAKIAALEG

[48] = molecular target: T48, 4H3165-AA; assay: two-hybrid library CCmax; conditions: mean of both orientations
T48 chain: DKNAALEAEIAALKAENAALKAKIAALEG

[49] = molecular target: T49, 4H2698-AA; assay: two-hybrid library CCmax; conditions: mean of both orientations
T49 chain: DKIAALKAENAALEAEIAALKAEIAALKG

[50] = molecular target: T50, 4H3697-AA; assay: two-hybrid library CCmax; conditions: mean of both orientations
T50 chain: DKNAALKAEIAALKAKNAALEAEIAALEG

[51] = molecular target: T51, 4H3865-AA; assay: two-hybrid library CCmax; conditions: mean of both orientations
T51 chain: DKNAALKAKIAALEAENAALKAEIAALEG

[52] = molecular target: T52, 4H2865-AA; assay: two-hybrid library CCmax; conditions: mean of both orientations
T52 chain: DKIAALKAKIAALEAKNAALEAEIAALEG

[53] = molecular target: T53, 4H2253-AA; assay: two-hybrid library CCmax; conditions: mean of both orientations
T53 chain: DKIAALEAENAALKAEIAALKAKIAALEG

[54] = molecular target: T54, 4H3016-AA; assay: two-hybrid library CCmax; conditions: mean of both orientations
T54 chain: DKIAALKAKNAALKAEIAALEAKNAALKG

B1: 4H3606-bA (peptide)
chain: DKNAQLKQEIAELEQENAELEWKIAQLKQ
[1]
  interaction score: -0.711
[2]
  interaction score: -0.435
[3]
  interaction score: -0.523
[4]
  interaction score: 0.309
[5]
  interaction score: -1.18
[6]
  interaction score: -0.812
[7]
  interaction score: -0.936
[8]
  interaction score: 1.25
[9]
  interaction score: 0.947
[10]
  interaction score: 0.708
[11]
  interaction score: 0.289
[12]
  interaction score: -2.04
[13]
  interaction score: -0.427
[14]
  interaction score: -1.09
[15]
  interaction score: -0.112

B2: 4H1877-AA (peptide)
chain: DENAALKAKIAALKAENAALEAKIAALEG
[16]
  interaction score: -0.752
[17]
  interaction score: -1.35
[18]
  interaction score: -1.43
[19]
  interaction score: -0.933
[20]
  interaction score: -1.51
[21]
  interaction score: -0.467
[22]
  interaction score: -1.84
[23]
  interaction score: -0.409
[24]
  interaction score: -1.77
[25]
  interaction score: -0.101
[26]
  interaction score: -1.24
[27]
  interaction score: -1.25
[28]
  interaction score: 1.92
[29]
  interaction score: -0.523
[30]
  interaction score: 1.9
[31]
  interaction score: 0.288
[32]
  interaction score: 1.82
[33]
  interaction score: -1.47
[34]
  interaction score: 1.3
[35]
  interaction score: 1.03
[36]
  interaction score: -1.07
[37]
  interaction score: -1.46
[38]
  interaction score: -1.36
[39]
  interaction score: -1.08
[40]
  interaction score: 0.957
[41]
  interaction score: 0.589
[42]
  interaction score: -0.565
[43]
  interaction score: -1.28
[44]
  interaction score: -1.7
[45]
  interaction score: -1.25
[46]
  interaction score: -0.897
[47]
  interaction score: -0.167
[48]
  interaction score: 0.715
[49]
  interaction score: -1.45
[50]
  interaction score: -0.0749
[51]
  interaction score: 0.523
[52]
  interaction score: -0.796
[53]
  interaction score: -1.17
[54]
  interaction score: 0.714
